PMC7733473, “Aberrant interaction of FUS with the U1 snRNA provides a molecular mechanism of FUS induced amyotrophic lateral sclerosis”

What was measured:
FUS-RBD (RRM-RGG2-ZnF) [1] = assay: competition; conditions: equimolar Sm proteins and U1-70K (1-216) present; ITC: 10 mM Na phosphate pH 6.8, 50 mM NaCl, 1 mM β-mercaptoethanol, 25 °C; NMR 313 K; SEC: 10 mM Na phosphate pH 6.8, 100 mM NaCl, 2 mM DTT; EMSA: 10 mM HEPES …; scale: % reduction of FUS capacity to impair core snRNP assembly
[2] = tested on: FUS-RBD WT, EMSA construct; assay: EMSA; conditions: 5 mM Mg2+, yeast tRNA and salmon sperm DNA; value given jointly with ITC; ITC: 10 mM Na phosphate pH 6.8, 50 mM NaCl, 1 mM β-mercaptoethanol, 25 °C; NMR 313 K; SEC: 10 mM Na phosphate pH 6.8, 100 mM NaCl, 2 mM DTT; EMSA: 10 mM HEPES …
FUS-RBD (RRM-RGG2-ZnF) [3] = assay: ITC; conditions: n = 0.92; K = (1.37 ± 0.23)e7; ITC: 10 mM Na phosphate pH 6.8, 50 mM NaCl, 1 mM β-mercaptoethanol, 25 °C; NMR 313 K; SEC: 10 mM Na phosphate pH 6.8, 100 mM NaCl, 2 mM DTT; EMSA: 10 mM HEPES …
FUS-RRM (RRM-RGG2) [4] = target: FUS-RRM (RRM-RGG2) (UniProt P35637); assay: ITC; conditions: n = 0.85; K = (1.25 ± 0.08)e5; 13C/15N in RNA-observed NMR; ITC: 10 mM Na phosphate pH 6.8, 50 mM NaCl, 1 mM β-mercaptoethanol, 25 °C; NMR 313 K; SEC: 10 mM Na phosphate pH 6.8, 100 mM NaCl, 2 mM DTT; EMSA: 10 mM HEPES …
Chain of FUS-RRM (RRM-RGG2) (UniProt P35637) (P35637 260-390): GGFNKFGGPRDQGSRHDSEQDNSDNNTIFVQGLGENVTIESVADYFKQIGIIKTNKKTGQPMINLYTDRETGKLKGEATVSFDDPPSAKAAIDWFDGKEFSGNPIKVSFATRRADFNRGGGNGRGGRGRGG

FUS-RRM (RRM-RGG2) [5] = target: FUS-RRM (RRM-RGG2) (UniProt P35637 260-390); assay: NMR titration; ITC: 10 mM Na phosphate pH 6.8, 50 mM NaCl, 1 mM β-mercaptoethanol, 25 °C; NMR 313 K; SEC: 10 mM Na phosphate pH 6.8, 100 mM NaCl, 2 mM DTT; EMSA: 10 mM HEPES pH 7.3, 100 mM KCl, 5 mM MgCl2, tRNA and ssDNA 10 µg/ml each, room temperature; conditions: protein: recombinant
Chain of FUS-RRM (RRM-RGG2) (UniProt P35637 260-390) (P35637 260-390): as above

In the case of U1 SL34, the binding signal (FUS-RBD (RRM-RGG2-ZnF) [1]) is reported as 75, the Kd [2] is reported as 70 nM and the Kd (FUS-RBD (RRM-RGG2-ZnF) [3]) is reported as 70 nM.

With U1 SL3 the Kd (FUS-RRM (RRM-RGG2) [4]) was 8000 nM.

GGACUUGAAAUAUAGUCC (structured_RNA) [U4 3'-ISL fragment]: binds (FUS-RRM (RRM-RGG2) [5]; hairpin).

UAUACUAA (ssRNA) [U6 21-28]: binds (FUS-RRM (RRM-RGG2) [5]; single strand).

GGCUCUGGUUUCUUCGGGAACAACUCUGAGCC (structured_RNA) [U5 IL-1 fragment]: binds (FUS-RRM (RRM-RGG2) [5]; hairpin with internal bulge, UUCG loop).
